Results as given in US20180155451A1 (published 2018).

B1: GpH7-A5/GpH7-B3 variant Q295_04F/GpL16-k0 (He Ab) (antibody, human IgG1, kappa)
heavy 1: not shown
heavy 2: not shown
light: DIVMTQSPLSLPVTPGEPASISCQASESLVHSNRNTYLHWYLQKPGQSPQLLIYKVSNRFSGVPDRFSGSGSGTDFTLKISRVEAEDVGVYYCSQNTHVPPTFGQGTKVEIERTVAAPSVFIFPPSDEQLKSGTASVVCLLNNFYPREAKVQWKVDNALQSGNSQESVTEQDSKDSTYSLSSTLTLSKADYEKHKVYACEVTHQGLSSPVTKSFNRGEC
notes: He Ab: alteration only in the GpH7-B3 chain
B2: GpH7-A5/GpH7-B3 variant Q295_05P/GpL16-k0 (He Ab) (antibody, human IgG1, kappa)
heavy 1: not shown
heavy 2: not shown
light: B1 light
notes: as for B1
B3: GpH7-A5/GpH7-B3 variant Q295_07I/GpL16-k0 (He Ab) (antibody, human IgG1, kappa)
heavy 1: not shown
heavy 2: not shown
light: B1 light
notes: as for B1
B4: GpH7-A5/GpH7-B3 variant Q295_13S/GpL16-k0 (He Ab) (antibody, human IgG1, kappa)
heavy 1: not shown
heavy 2: not shown
light: B1 light
notes: as for B1
B5: GpH7-A5/GpH7-B3 variant Q295_14T/GpL16-k0 (He Ab) (antibody, human IgG1, kappa)
heavy 1: not shown
heavy 2: not shown
light: B1 light
notes: as for B1
B6: GpH7-A5/GpH7-B3 variant Q295_18N/GpL16-k0 (He Ab) (antibody, human IgG1, kappa)
heavy 1: not shown
heavy 2: not shown
light: B1 light
notes: as for B1
B7: GpH7-A5/GpH7-B3 variant S239_01G/GpL16-k0 (He Ab) (antibody, human IgG1, kappa)
heavy 1: not shown
heavy 2: not shown
light: B1 light
notes: as for B1
B8: GpH7-A5/GpH7-B3 variant S239_09D/GpL16-k0 (He Ab) (antibody, human IgG1, kappa)
heavy 1: not shown
heavy 2: not shown
light: B1 light
notes: as for B1
B9: GpH7-A5/GpH7-B3 variant S267_01G/GpL16-k0 (He Ab) (antibody, human IgG1, kappa)
heavy 1: not shown
heavy 2: not shown
light: B1 light
notes: as for B1
B10: GpH7-A5/GpH7-B3 variant S267_02A/GpL16-k0 (He Ab) (antibody, human IgG1, kappa)
heavy 1: not shown
heavy 2: not shown
light: B1 light
notes: as for B1
B11: GpH7-A5/GpH7-B3 variant S267_03V/GpL16-k0 (He Ab) (antibody, human IgG1, kappa)
heavy 1: not shown
heavy 2: not shown
light: B1 light
notes: as for B1
B12: GpH7-A5/GpH7-B3 variant S267_09D/GpL16-k0 (He Ab) (antibody, human IgG1, kappa)
heavy 1: not shown
heavy 2: not shown
light: B1 light
notes: as for B1
B13: GpH7-A5/GpH7-B3 variant S298_03V/GpL16-k0 (He Ab) (antibody, human IgG1, kappa)
heavy 1: not shown
heavy 2: not shown
light: B1 light
notes: as for B1
B14: GpH7-A5/GpH7-B3 variant S298_07I/GpL16-k0 (He Ab) (antibody, human IgG1, kappa)
heavy 1: not shown
heavy 2: not shown
light: B1 light
notes: as for B1
B15: GpH7-A5/GpH7-B3 variant S298_08L/GpL16-k0 (He Ab) (antibody, human IgG1, kappa)
heavy 1: not shown
heavy 2: not shown
light: B1 light
notes: as for B1
B16: GpH7-A5/GpH7-B3 variant S298_10E/GpL16-k0 (He Ab) (antibody, human IgG1, kappa)
heavy 1: not shown
heavy 2: not shown
light: B1 light
notes: as for B1
B17: GpH7-A5/GpH7-B3 variant S298_14T/GpL16-k0 (He Ab) (antibody, human IgG1, kappa)
heavy 1: not shown
heavy 2: not shown
light: B1 light
notes: as for B1
B18: GpH7-A5/GpH7-B3 variant S298_15Y/GpL16-k0 (He Ab) (antibody, human IgG1, kappa)
heavy 1: not shown
heavy 2: not shown
light: B1 light
notes: as for B1
B19: GpH7-A5/GpH7-B3 variant S298_16H/GpL16-k0 (He Ab) (antibody, human IgG1, kappa)
heavy 1: not shown
heavy 2: not shown
light: B1 light
notes: as for B1
B20: GpH7-A5/GpH7-B3 variant S298_18N/GpL16-k0 (He Ab) (antibody, human IgG1, kappa)
heavy 1: not shown
heavy 2: not shown
light: B1 light
notes: as for B1
B21: GpH7-A5/GpH7-B3 variant S298_19Q/GpL16-k0 (He Ab) (antibody, human IgG1, kappa)
heavy 1: not shown
heavy 2: not shown
light: B1 light
notes: as for B1
B22: GpH7-A5/GpH7-B3 variant S324_02A/GpL16-k0 (He Ab) (antibody, human IgG1, kappa)
heavy 1: not shown
heavy 2: not shown
light: B1 light
notes: as for B1
B23: GpH7-A5/GpH7-B3 variant S324_03V/GpL16-k0 (He Ab) (antibody, human IgG1, kappa)
heavy 1: not shown
heavy 2: not shown
light: B1 light
notes: as for B1
B24: GpH7-A5/GpH7-B3 variant S324_08L/GpL16-k0 (He Ab) (antibody, human IgG1, kappa)
heavy 1: not shown
heavy 2: not shown
light: B1 light
notes: as for B1
B25: GpH7-A5/GpH7-B3 variant S324_14T/GpL16-k0 (He Ab) (antibody, human IgG1, kappa)
heavy 1: not shown
heavy 2: not shown
light: B1 light
notes: as for B1
B26: GpH7-A5/GpH7-B3 variant S324_19Q/GpL16-k0 (He Ab) (antibody, human IgG1, kappa)
heavy 1: not shown
heavy 2: not shown
light: B1 light
notes: as for B1
B27: GpH7-A5/GpH7-B3 variant S324_20W/GpL16-k0 (He Ab) (antibody, human IgG1, kappa)
heavy 1: not shown
heavy 2: not shown
light: B1 light
notes: as for B1
B28: GpH7-A5/GpH7-B3 variant S337_01G/GpL16-k0 (He Ab) (antibody, human IgG1, kappa)
heavy 1: not shown
heavy 2: not shown
light: B1 light
notes: as for B1
B29: GpH7-A5/GpH7-B3 variant S337_02A/GpL16-k0 (He Ab) (antibody, human IgG1, kappa)
heavy 1: not shown
heavy 2: not shown
light: B1 light
notes: as for B1
B30: GpH7-A5/GpH7-B3 variant S337_03V/GpL16-k0 (He Ab) (antibody, human IgG1, kappa)
heavy 1: not shown
heavy 2: not shown
light: B1 light
notes: as for B1

The binders below were run against T1, FcγRIa extracellular domain with C-terminal His tag (human, UniProt P12314 16-292) (assay: SPR Biacore, antibody captured, FcγRIa analyte; vs GpH7-A5/GpH7-B3/GpL16-k0 = 100).
T1 construct: extracellular domain; Expressed in FreeStyle293 cells; analyte in Biacore; also called FcgRI; FcgRIa
T1 sequence (P12314 16-292): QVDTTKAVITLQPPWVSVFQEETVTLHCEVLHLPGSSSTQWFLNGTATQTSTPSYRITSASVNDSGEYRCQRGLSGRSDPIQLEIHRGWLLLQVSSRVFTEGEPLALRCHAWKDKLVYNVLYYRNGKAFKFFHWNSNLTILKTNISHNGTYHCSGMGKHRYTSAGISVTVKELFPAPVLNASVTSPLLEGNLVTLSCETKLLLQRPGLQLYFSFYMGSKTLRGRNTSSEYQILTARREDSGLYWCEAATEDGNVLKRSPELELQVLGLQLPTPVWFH

| Binder | He/Con_1a |
| --- | --- |
| B1 | 102 relative (control = 100) |
| B2 | 103 relative (control = 100) |
| B3 | 103 relative (control = 100) |
| B4 | 102 relative (control = 100) |
| B5 | 103 relative (control = 100) |
| B6 | 102 relative (control = 100) |
| B7 | 101 relative (control = 100) |
| B8 | 101 relative (control = 100) |
| B9 | 103 relative (control = 100) |
| B10 | 109 relative (control = 100) |
| B11 | 106 relative (control = 100) |
| B12 | 110 relative (control = 100) |
| B13 | 110 relative (control = 100) |
| B14 | 107 relative (control = 100) |
| B15 | 107 relative (control = 100) |
| B16 | 108 relative (control = 100) |
| B17 | 107 relative (control = 100) |
| B18 | 107 relative (control = 100) |
| B19 | 109 relative (control = 100) |
| B20 | 108 relative (control = 100) |
| B21 | 109 relative (control = 100) |
| B22 | 103 relative (control = 100) |
| B23 | 104 relative (control = 100) |
| B24 | 103 relative (control = 100) |
| B25 | 121 relative (control = 100) |
| B26 | 112 relative (control = 100) |
| B27 | 114 relative (control = 100) |
| B28 | 107 relative (control = 100) |
| B29 | 106 relative (control = 100) |
| B30 | 107 relative (control = 100) |
